Consider 9 molecules from patent US20240360223A1 (DRAGONFLY THERAPEUTICS, published 2024).

Assay [1] addresses T1, human BAFF-R expressed on cells (human, UniProt Q96RJ3 1-184).
T1 construct: Cell surface BAFF-R, endogenous on B cell lines and primary B cells or overexpressed on isogenic CHO cells; also called hBAFF-R; hBAFF-R-CHO
Description: flow cytometry, RAJI cells. How it is done:
The BAFF-R positive human B lymphoblastoid RAJI cell line was used to assess TriNKET binding to cell surface BAFF-R. Certain BAFF-R TriNKETs in the 2-Fab and F3′ formats, as described in the “exemplary multispecific binding proteins” subsection above, were diluted and incubated with Raji cells. Binding patterns of TriNKETs and parental monoclonal antibodies were detected using a fluorophore conjugated anti-human IgG secondary antibody. The cells were then incubated with a fluorophore conjugated anti-human IgG secondary antibody and were analyzed by flow cytometry. The mean fluorescence intensity (MFI) values were normalized to secondary antibody only controls to obtain fold over background (FOB) values.
A general note: In flow cytometry, cells or beads pass a laser one at a time.

The target of assay [2] is T2, cynomolgus monkey BAFF-R expressed on cells (cynomolgus monkey).
T2 construct: whole, on cells; also called cBAFF-R; cynoBAFF-R
The experiment in a line: flow cytometry, cyno BAFF-R CHO cells.

Assay [3] has as its target T1, human BAFF-R expressed on cells. Description: flow cytometry, human BAFF-R CHO cells.

B1: Ianalumab-F3′ (bispecific antibody, human IgG1, kappa)
chain: DIVLTQSPATLSLSPGERATLSCRASQFILPEYLSWYQQKPGQAPRLLIYGSSSRATGVPARFSGSGSGTDFTLTISSLEPEDFAVYYCQQFYSSPLTFGCGTKVEIKGGGGSGGGGSGGGGSGGGGSQVQLQQSGPGLVKPSQTLSLTCAISGDSVSSNSAAWGWIRQSPGRCLEWLGRIYYRSKWYNSYAVSVKSRITINPDTSKNQFSLQLNSVTPEDTAVYYCARYQWVPKIGVFDSWGQGTLVTVSSASDKTHTCPPCPAPELLGGPSVFLFPPKPKDTLMISRTPEVTCVVVDVSHEDPEVKFNWYVDGVEVHNAKTKPREEQYNSTYRVVSVLTVLHQDWLNGKEYKCKVSNKALPAPIEKTISKAKGQPREPRVYTLPPCRDELTKNQVSLTCLVKGFYPSDIAVEWESNGQPENNYKTTPPVLVSDGSFTLYSKLTVDKSRWQQGNVFSCSVMHEALHNHYTQKSLSLSPG
heavy: EVQLVESGGGLVKPGGSLRLSCAASGFTFSSYSMNWVRQAPGKGLEWVSSISSSSSYIYYADSVKGRFTISRDNAKNSLYLQMNSLRAEDTAVYYCARGAPIGAAAGWFDPWGQGTLVTVSSASTKGPSVFPLAPSSKSTSGGTAALGCLVKDYFPEPVTVSWNSGALTSGVHTFPAVLQSSGLYSLSSVVTVPSSSLGTQTYICNVNHKPSNTKVDKKVEPKSCDKTHTCPPCPAPELLGGPSVFLFPPKPKDTLMISRTPEVTCVVVDVSHEDPEVKFNWYVDGVEVHNAKTKPREEQYNSTYRVVSVLTVLHQDWLNGKEYKCKVSNKALPAPIEKTISKAKGQPREPQVCTLPPSRDELTENQVSLTCLVKGFYPSDIAVEWESNGQPENNYKTTPPVLDSDGSFFLYSWLTVDKSRWQQGNVFSCSVMHEALHNHYTQKSLSLSPG
light: DIQMTQSPSSVSASVGDRVTITCRASQGISSWLAWYQQKPGKAPKLLIYAASSLQSGVPSRFSGSGSGTDFTLTISSLQPEDFATYYCQQGVSFPRTFGGGTKVEIKRTVAAPSVFIFPPSDEQLKSGTASVVCLLNNFYPREAKVQWKVDNALQSGNSQESVTEQDSKDSTYSLSSTLTLSKADYEKHKVYACEVTHQGLSSPVTKSFNRGEC
notes: F3′ TriNKET: BAFF-R scFv-Fc (chain S), NKG2D Fab heavy (chain H) and light (chain L); no ADCC-enhancing mutations; also called ianalumab-F3′ TriNKET; Tool-F3′
The EC50 is the midpoint of the concentration-response curve. Regarding B1, the EC50 in assay [1] amounted to 0.361 nM; in assay [2], 2.9 nM; in assay [3], 4.3 nM.

B2: Hu9.1-73-F3′ (bispecific antibody, human IgG1, kappa)
chain: DIQMTQSPSSLSASVGDRVTITCKSSQSLLYSSNQNNYLAWYQQKPGKAPKLLIYWAQHLDSGVPSRFSGSGSGTDFTLTISSLQPEDFATYYCQQYYTYPYTFGCGTKVEIKGGGGSGGGGSGGGGSGGGGSEVQLVESGGGLVQPGGSLRLSCAASGLPMAGFYTSWVRQAPGKCLEWVGFIRDKANGYTTEYNPSVKGRFTISADTSKNTAYLQMNSLRAEDTAVYYCAQVRRALDYWGQGTLVTVSSASDKTHTCPPCPAPELLGGPSVFLFPPKPKDTLMISRTPEVTCVVVDVSHEDPEVKFNWYVDGVEVHNAKTKPREEQYNSTYRVVSVLTVLHQDWLNGKEYKCKVSNKALPAPIEKTISKAKGQPREPRVYTLPPCRDELTKNQVSLTCLVKGFYPSDIAVEWESNGQPENNYKTTPPVLVSDGSFTLYSKLTVDKSRWQQGNVFSCSVMHEALHNHYTQKSLSLSPG
heavy: EVQLVESGGGLVKPGGSLRLSCAASGFTFSSYSMNWVRQAPGKGLEWVSSISSSSSYIYYADSVKGRFTISRDNAKNSLYLQMNSLRAEDTAVYYCARGAPIGAAAGWFDPWGQGTLVTVSSASTKGPSVFPLAPSSKSTSGGTAALGCLVKDYFPEPVTVSWNSGALTSGVHTFPAVLQSSGLYSLSSVVTVPSSSLGTQTYICNVNHKPSNTKVDKKVEPKSCDKTHTCPPCPAPELLGGPSVFLFPPKPKDTLMISRTPEVTCVVVDVSHEDPEVKFNWYVDGVEVHNAKTKPREEQYNSTYRVVSVLTVLHQDWLNGKEYKCKVSNKALPAPIEKTISKAKGQPREPQVCTLPPSRDELTENQVSLTCLVKGFYPSDIAVEWESNGQPENNYKTTPPVLDSDGSFFLYSWLTVDKSRWQQGNVFSCSVMHEALHNHYTQKSLSLSPG
light: DIQMTQSPSSVSASVGDRVTITCRASQGISSWLAWYQQKPGKAPKLLIYAASSLQSGVPSRFSGSGSGTDFTLTISSLQPEDFATYYCQQGVSFPRTFGGGTKVEIKRTVAAPSVFIFPPSDEQLKSGTASVVCLLNNFYPREAKVQWKVDNALQSGNSQESVTEQDSKDSTYSLSSTLTLSKADYEKHKVYACEVTHQGLSSPVTKSFNRGEC
notes: F3′ TriNKET; also called Hu9.1-73-F3′ TriNKET
In the case of B2, the response in assay [1] was half-maximal at 0.765 nM (EC50).

B3: hCOH-2-F3′ (bispecific antibody, human IgG1, kappa)
chain: DIVLTQSPATLSLSPGERATLSCRASESVDNYGISFMNWFQQKPGQAPRLLIYAASNRATGIPARFSGSGSGTDFTLTISSLEPEDFAVYYCQQSKEVPWTFGCGTKVEIKGGGGSGGGGSGGGGSGGGGSEVQLQESGPGLVKPSQTLSLTCTVSGDSITSGYWNWIRQHPGKCLEYIGYISYSGSTYYNPSLKSRVTISRDTSKNQYSLKLSSVTAADTAVYYCASPNYPFYAMDYWGQGTLVTVSSASDKTHTCPPCPAPELLGGPSVFLFPPKPKDTLMISRTPEVTCVVVDVSHEDPEVKFNWYVDGVEVHNAKTKPREEQYNSTYRVVSVLTVLHQDWLNGKEYKCKVSNKALPAPIEKTISKAKGQPREPRVYTLPPCRDELTKNQVSLTCLVKGFYPSDIAVEWESNGQPENNYKTTPPVLVSDGSFTLYSKLTVDKSRWQQGNVFSCSVMHEALHNHYTQKSLSLSPG
heavy: EVQLVESGGGLVKPGGSLRLSCAASGFTFSSYSMNWVRQAPGKGLEWVSSISSSSSYIYYADSVKGRFTISRDNAKNSLYLQMNSLRAEDTAVYYCARGAPIGAAAGWFDPWGQGTLVTVSSASTKGPSVFPLAPSSKSTSGGTAALGCLVKDYFPEPVTVSWNSGALTSGVHTFPAVLQSSGLYSLSSVVTVPSSSLGTQTYICNVNHKPSNTKVDKKVEPKSCDKTHTCPPCPAPELLGGPSVFLFPPKPKDTLMISRTPEVTCVVVDVSHEDPEVKFNWYVDGVEVHNAKTKPREEQYNSTYRVVSVLTVLHQDWLNGKEYKCKVSNKALPAPIEKTISKAKGQPREPQVCTLPPSRDELTENQVSLTCLVKGFYPSDIAVEWESNGQPENNYKTTPPVLDSDGSFFLYSWLTVDKSRWQQGNVFSCSVMHEALHNHYTQKSLSLSPG
light: DIQMTQSPSSVSASVGDRVTITCRASQGISSWLAWYQQKPGKAPKLLIYAASSLQSGVPSRFSGSGSGTDFTLTISSLQPEDFATYYCQQGVSFPRTFGGGTKVEIKRTVAAPSVFIFPPSDEQLKSGTASVVCLLNNFYPREAKVQWKVDNALQSGNSQESVTEQDSKDSTYSLSSTLTLSKADYEKHKVYACEVTHQGLSSPVTKSFNRGEC
notes: F3′ TriNKET
With B3, in assay [1], the EC50 was determined as 0.893 nM.

B4: Hu9.1-73-2-Fab (bispecific antibody, human IgG1, kappa)
heavy 1: not shown
light 1: DIQMTQSPSSLSASVGDRVTITCKSSQSLLYSSNQNNYLAWYQQKPGKAPKLLIYWAQHLDSGVPSRFSGSGSGTDFTLTISSLQPEDFATYYCQQYYTYPYTFGQGTKVEIKRTVAAPSVFIFPPSDEQLKSGTASVVCLLNNFYPREAKVQWKVDNALQSGNSQESVTEQDSKDSTYSLSSTLTLSKADYEKHKVYACEVTHQGLSSPVTKSFNRGEC
heavy 2: not shown
light 2: DIQMTQSPSSVSASVGDRVTITCRASQGISSWLAWYQQKPGKAPKLLIYAASSLQSGVPSRFSGSGSGTDFTLTISSLQPEDFATYYCQQGVSFPRTFGGGTKVEIKRTVAAPSVFIFPPSDEQLKSGTASVVCLLNNFYPREAKVQWKVDNALQSGNSQESVTEQDSKDSTYSLSSTLTLSKADYEKHKVYACEVTHQGLSSPVTKSFNRGEC
notes: 2-Fab TriNKET
B4 showed an EC50 in assay [1] of 1.05 nM.

B5: hCOH-2-2-Fab (bispecific antibody, human IgG1, kappa)
heavy 1: not shown
light 1: DIVLTQSPATLSLSPGERATLSCRASESVDNYGISFMNWFQQKPGQAPRLLIYAASNRATGIPARFSGSGSGTDFTLTISSLEPEDFAVYYCQQSKEVPWTFGGGTKVEIKRTVAAPSVFIFPPSDEQLKSGTASVVCLLNNFYPREAKVQWKVDNALQSGNSQESVTEQDSKDSTYSLSSTLTLSKADYEKHKVYACEVTHQGLSSPVTKSFNRGEC
heavy 2: not shown
light 2: DIQMTQSPSSVSASVGDRVTITCRASQGISSWLAWYQQKPGKAPKLLIYAASSLQSGVPSRFSGSGSGTDFTLTISSLQPEDFATYYCQQGVSFPRTFGGGTKVEIKRTVAAPSVFIFPPSDEQLKSGTASVVCLLNNFYPREAKVQWKVDNALQSGNSQESVTEQDSKDSTYSLSSTLTLSKADYEKHKVYACEVTHQGLSSPVTKSFNRGEC
notes: 2-Fab TriNKET
On to B5, for which the response in assay [1] was half-maximal at 0.942 nM (EC50).

B6: Ianalumab-2-Fab (bispecific antibody, human IgG1, kappa)
heavy 1: not shown
light 1: DIVLTQSPATLSLSPGERATLSCRASQFILPEYLSWYQQKPGQAPRLLIYGSSSRATGVPARFSGSGSGTDFTLTISSLEPEDFAVYYCQQFYSSPLTFGQGTKVEIKRTVAAPSVFIFPPSDEQLKSGTASVVCLLNNFYPREAKVQWKVDNALQSGNSQESVTEQDSKDSTYSLSSTLTLSKADYEKHKVYACEVTHQGLSSPVTKSFNRGEC
heavy 2: not shown
light 2: DIQMTQSPSSVSASVGDRVTITCRASQGISSWLAWYQQKPGKAPKLLIYAASSLQSGVPSRFSGSGSGTDFTLTISSLQPEDFATYYCQQGVSFPRTFGGGTKVEIKRTVAAPSVFIFPPSDEQLKSGTASVVCLLNNFYPREAKVQWKVDNALQSGNSQESVTEQDSKDSTYSLSSTLTLSKADYEKHKVYACEVTHQGLSSPVTKSFNRGEC
notes: 2-Fab TriNKET: BAFF-R Fab arm and NKG2D (A49MI) Fab arm, F405L/K409R Fc
Consider B6, for which, in assay [1], it took 0.115 nM to reach a half-maximal effect (EC50).

B7: Hu9.1-73-mAb (antibody, V domains shown)
VH: EVQLVESGGGLVQPGGSLRLSCAASGLPMAGFYTSWVRQAPGKGLEWVGFIRDKANGYTTEYNPSVKGRFTISADTSKNTAYLQMNSLRAEDTAVYYCAQVRRALDYWGQGTLVTVSS
VL: DIQMTQSPSSLSASVGDRVTITCKSSQSLLYSSNQNNYLAWYQQKPGKAPKLLIYWAQHLDSGVPSRFSGSGSGTDFTLTISSLQPEDFATYYCQQYYTYPYTFGQGTKVEIK
notes: Parental monoclonal antibody; also called Genentech Hu9.1-73 parental mAb
For the molecule B7, in assay [1], the EC50 was determined as 0.379 nM.

B8: hCOH-2-mAb (antibody, V domains shown)
VH: EVQLQESGPGLVKPSQTLSLTCTVSGDSITSGYWNWIRQHPGKGLEYIGYISYSGSTYYNPSLKSRVTISRDTSKNQYSLKLSSVTAADTAVYYCASPNYPFYAMDYWGQGTLVTVSS
VL: DIVLTQSPATLSLSPGERATLSCRASESVDNYGISFMNWFQQKPGQAPRLLIYAASNRATGIPARFSGSGSGTDFTLTISSLEPEDFAVYYCQQSKEVPWTFGGGTKVEIK
notes: Parental monoclonal antibody; also called Humanized mAb hCOH-2
Molecule B8 had an EC50 in assay [1] of 0.043 nM.

B9: AB0681 (bispecific antibody, V domains shown)
VH: EVQLVQSGGGVVQPGRSLRLSCAASGEWFSSYGMHWVRQAPGKCLEWVAVIWYDGSNKYYGDSVKGRFTISRDNSKNTLYLQMNSLRDEDTAVYYCARRFTHLRGWIIEDYGMDVWGQGTTVTVSS
VL: not shown
notes: also called AB0681-001
With B9, the EC50 in assay [2] was determined as 5.6 nM; in assay [3], 5.1 nM.
